# Laboratory results: US20180147273A1 (Harvard, published 2018)
# T1: VipB protein (Vibrio cholerae, VCA0108) (Vibrio cholerae)
# T1 construct: GenBank NP_232509; The experiments used strain 2740-80; also called 55 kDa band; Band A
# T1 chain: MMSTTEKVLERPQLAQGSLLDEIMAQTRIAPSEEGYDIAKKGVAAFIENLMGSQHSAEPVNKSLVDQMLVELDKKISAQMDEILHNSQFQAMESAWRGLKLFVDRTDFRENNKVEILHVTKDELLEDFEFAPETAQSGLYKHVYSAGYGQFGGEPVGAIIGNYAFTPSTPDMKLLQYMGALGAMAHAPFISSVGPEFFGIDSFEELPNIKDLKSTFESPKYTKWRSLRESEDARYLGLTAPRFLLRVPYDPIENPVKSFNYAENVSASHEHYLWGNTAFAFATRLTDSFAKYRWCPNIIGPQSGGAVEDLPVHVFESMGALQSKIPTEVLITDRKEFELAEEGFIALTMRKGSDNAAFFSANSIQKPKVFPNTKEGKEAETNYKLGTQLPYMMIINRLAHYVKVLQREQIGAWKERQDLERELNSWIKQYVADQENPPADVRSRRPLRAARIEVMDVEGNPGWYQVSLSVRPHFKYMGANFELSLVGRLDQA
# Target: T1, VipB protein (Vibrio cholerae, VCA0108)
# Test: purified sheath separated by SDS-PAGE; bands identified by MS
binder,measurement,value
"VipA protein (Vibrio cholerae, VCA0107) (other, GenBank NP_232508; The experiments used strain 2740-80; also called WT VipA; 20 kDa band) MSKEGSVAPKERINIKYIPATGDAQAEVELPLKTLVVGDFKGHAEQTPLEERATVTVDKNNFEAVMRESELKITATVKNKLTDDENAELPVELNFKSLADFAPDAVASQVPELKKLIELREALVALKGPLGNIPAFRERLQSLLNSEESREKLLAELNLLSGQEEPQA",binding result,binds
